Read-outs that look alike come from different tables or passages of the source. One block for each molecule: values may come before it.
B1: IL-33 (residues 112-270) (ligand, UniProt O95760 112-270, looked up)
chain: SITGISPITEYLASLSTYNDQSITFALEDESYEIYVEDLKKDEKKDKVLLSYYESQHPSNESGDGVDGKMLMVTLSPTKDFWLHANNKEHSVELHKCEKPLPDQAFFVLHNMHSNCVSFECKTDPGVFIGVKDNHLALIKVDSSENLCTENILFKLSET
notes: Interleukin-33, residues 112-270; Used unlabelled as the analyte in BLI; source: E. coli Rosetta2 (DE3), purified (Ni-NTA, TEV cleavage, second Ni-NTA, Superdex 75); not shown: His6, N-terminal, cleaved

Legend:
IL-1β (Homo sapiens) [1] = target: IL-1β (Homo sapiens) (UniProt P01584); details: cited from earlier work
Sequence of IL-1β (Homo sapiens) (P01584 117-269): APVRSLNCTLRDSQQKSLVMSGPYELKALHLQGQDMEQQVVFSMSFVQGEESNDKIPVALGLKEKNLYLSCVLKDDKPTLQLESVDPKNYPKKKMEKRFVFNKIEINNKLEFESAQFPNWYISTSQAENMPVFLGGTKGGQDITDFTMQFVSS

IL-33 (Homo sapiens) = IL-33 (Homo sapiens) (UniProt O95760); assay: ITC; details: cited from earlier work
IL-1α (Homo sapiens) = IL-1α (Homo sapiens) (UniProt P01583); details: cited from earlier work
Sequence of IL-1α (Homo sapiens) (P01583 113-271): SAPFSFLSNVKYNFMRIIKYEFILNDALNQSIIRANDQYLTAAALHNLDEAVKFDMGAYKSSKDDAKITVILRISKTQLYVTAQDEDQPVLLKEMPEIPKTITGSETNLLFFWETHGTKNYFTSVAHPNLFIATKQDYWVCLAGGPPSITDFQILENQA

IL-1Ra (Homo sapiens) = IL-1Ra (Homo sapiens) (UniProt P18510); details: cited from earlier work
Sequence of IL-1Ra (Homo sapiens) (P18510 26-177): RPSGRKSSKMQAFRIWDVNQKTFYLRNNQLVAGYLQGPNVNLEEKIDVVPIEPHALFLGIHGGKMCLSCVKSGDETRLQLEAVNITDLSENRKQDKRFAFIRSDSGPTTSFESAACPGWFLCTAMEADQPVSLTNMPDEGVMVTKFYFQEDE

IL-1β (Homo sapiens) [2] = target: IL-1β (Homo sapiens) (UniProt P01584); details: cited from earlier work; remark: listed apart in the source
[3] = target: ST2 D1-D2 domain (sequence 19-206) (UniProt Q01638 19-206, biotinylated with Biotin-PEO4 linker (equimolar ratio)); assay: BLI; OctetRED96; biotinylated ST2 loaded on streptavidin sensors (20 ug/mL, 10 min), serial dilutions of IL-33 in solution; 25 C; 10 mM HEPES pH 7.5, 150 mM NaCl, 0.005% Tween 20, 100 uM EDTA; 1:1 binding model, KD calculated from kon and koff; details: both partners purified
IL-33 (residues 112-270) = target: B1; assay: as above; details: both partners purified

Molecule: IL-1R1 D1-D3 (from UniProt P14778)
Kd (IL-1β (Homo sapiens) [1]): 2 nM

Molecule: ST2 ECD (from UniProt Q01638)
Kd (IL-33 (Homo sapiens)): 5 nM

Molecule: IL-1R1 D1-D2 (from UniProt P14778)
Kd (IL-1α (Homo sapiens)): 7000 nM
Kd (IL-1Ra (Homo sapiens)): 28 nM
Kd (IL-1β (Homo sapiens) [2]): > 10000 nM

Molecule: B1
Kd [3]: 65.1 nM
koff [3]: 0.215 s⁻¹
kon [3]: 3.3e+06 M⁻¹ s⁻¹

Kd (IL-33 (residues 112-270)): 2.23 nM
koff (IL-33 (residues 112-270)): 0.00115 s⁻¹
kon (IL-33 (residues 112-270)): 516000 M⁻¹ s⁻¹
B2: ST2 ectodomain, D1-D3 domains (sequence 19-323) (domain or fragment)
chain: KFSKQSWGLENEALIVRCPRQGKPSYTVDWYYSQTNKSIPTQERNRVFASGQLLKFLPAAVADSGIYTCIVRSPTFNRTGYANVTIYKKQSDCNVPDYLMYSTVSGSEKNSKIYCPTIDLYNWTAPLEWFKNCQALQGSRYRAHKSFLVIDNVMTEDAGDYTCKFIHNENGANYSVTATRSFTVKDEQGFSLFPVIGAPAQNEIKEVEIGKNANLTCSACFGKGTQFLAAVLWQLNGTKITDFGEPRIQQEEGQNQSFSNGLACLDMVLRIADVKEEDLLLQYDCLALNLHGLRRHTVRLSRKNP
modifications: biotinylated with Biotin-PEO4 linker (equimolar ratio)

— paper PMC4703388, “Conformational Sampling and Binding Site Assessment of Suppression of Tumorigenicity 2 Ectodomain” (PLoS ONE, 2016)
